Measured values taken from patent US20240207432A1 (BIOSION, published 2024).
Changes are numbered by the printed parent chain.

Columns and labels:
[1] = biological target: T1, human TROP2-his protein (human, UniProt P09758 27-274); assay: SPR Biacore, antibody captured on chip, TROP2-his analyte
T1 construct: Biotin-labelled in the ELISAs, unlabelled analyte in Biacore; also called biotin-labeled human TROP2-his protein; biotin human Trop2-his
T1 sequence: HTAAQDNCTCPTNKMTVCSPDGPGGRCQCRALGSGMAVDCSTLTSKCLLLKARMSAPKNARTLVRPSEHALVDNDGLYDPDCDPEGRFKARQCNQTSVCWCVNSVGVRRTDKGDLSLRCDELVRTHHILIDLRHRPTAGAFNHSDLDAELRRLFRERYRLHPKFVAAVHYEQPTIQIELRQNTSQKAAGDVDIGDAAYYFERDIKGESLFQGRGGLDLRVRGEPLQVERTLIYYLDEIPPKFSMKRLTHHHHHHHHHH

[2] = biological target: T2, cynomolgus TROP2-his protein (cynomolgus monkey, UniProt P09758 27-272 (human entry), limits assumed); assay: as above
T2 construct: no cleavage site is stated; also called Cynomolgus monkey TROP2-his protein; monkey TROP2
T2 chain: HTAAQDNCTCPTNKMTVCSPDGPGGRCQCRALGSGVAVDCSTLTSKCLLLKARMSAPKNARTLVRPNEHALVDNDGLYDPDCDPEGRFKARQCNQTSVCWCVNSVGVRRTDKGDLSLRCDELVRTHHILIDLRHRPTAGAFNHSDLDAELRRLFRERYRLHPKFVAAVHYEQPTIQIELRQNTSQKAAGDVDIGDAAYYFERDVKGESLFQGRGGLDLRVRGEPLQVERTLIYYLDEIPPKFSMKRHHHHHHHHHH

[3] = biological target: T1, human TROP2-his protein; assay: competitive ELISA: mouse A1E11A12D1 coated at 2 ug/mL, antibody premixed with biotin human TROP2-his; blocked: binding of TROP2-his to coated A1E11A12D1
Description: (§1) The mouse anti-TROP2 antibodies were tested for epitope binding in a competitive ELISA assay. […] ELISA plates were washed once with wash buffer (PBS+0.05% v/v Tween-20, PBST) and then blocked with 200 μl blocking buffer (5% w/v non-fatty milk in PBST) for 2 hours at 37° C. While blocking, the anti-TROP2 antibodies or controls were diluted with biotin labeled human TROP2-his protein (SEQ ID NO: 67, 34 ng/mL in 2.5% wA non-fatty milk in PBST), starting at 80 nM with a 5-fold serial dilution, and incubated at room temperature for 40 minutes. After plate washing for 4 times, the antibody/TROP2-his protein mixtures were added to the antibody coated plates, 100 μl per well. After incubation at 37° C. for 40 minutes, plates were washed 4 times again using wash buffer. Then the plates were added and incubated with 100 μl Peroxidase Streptavidin (1:10000 dilution in PBST buffer. Jackson Immunoresearch, Cat #016-030-084) for 40 minutes at 37° C. Plates were washed again using wash buffer. Finally, TMB was added and the reaction was stopped using 1M H₂SO₄. The absorbance of each well was read on a microplate reader using dual wavelength mode with 450 nm for TMB and 630 nm as the reference wavelength, and the OD (450-630) values were plotted against antibody concentration. Data was analyzed using Graphpad Prism software and IC₅₀ values were reported.

[4] = biological target: T1, human TROP2-his protein; assay: capture ELISA, captured antibody, biotin human TROP2-his in solution, OD(450-630)
[5] = biological target: T1, human TROP2-his protein; assay: capture ELISA, antibody captured on anti-human IgG Fc coat, biotin human TROP2-his in solution, OD(450-630)
Description: Plates were washed once with wash buffer (PBS+0.05% v/v Tween-20, PBST) and then blocked with 200 μl/well blocking buffer (5% w/v non-fatty milk in PBST) for 2 hours at 37° C. […] Plates containing captured anti-TROP2 antibodies were incubated with biotin-labeled human TROP2-his protein (prepared in house, SEQ ID NO: 67, 56.7 ng/mL in 2.5% w/v non-fatty milk in PBST, 100 μl/well) for 40 minutes at 37° C., washed 4 times, and incubated with streptavidin conjugated HRP (1:10000 dilution in PBST, Jackson Immuno Research, Cat #016-030-084, 100 μl/well) for 40 minutes at 37° C. After a final wash, plates were incubated with 100 μl/well ELISA substrate TMB (Innoreagents, Cat #TMB-S-002) at room temperature. The reaction was stopped in 3-10 minutes at room temperature with 50 μl/well 1M H₂SO₄, and the absorbance of each well was read on a microplate reader using dual wavelength mode with 450 nm for TMB and 630 nm as the reference wavelength. The OD (450-630) values were plotted against antibody concentration. Data was analyzed using Graphpad Prism software and EC₅₀ values were reported.
For the capture ELISA, AffiniPure Goat Anti-Human IgG, Fcγ fragment specific (Jackson Immuno Research, Cat #109-005-098) was used instead of AffiniPure Goat Anti-Mouse IgG, Fcγ fragment specific, 100 μl/well.

[6] = biological target: T1, human TROP2-his protein; assay: competitive ELISA: BM1 coated at 1 ug/mL, antibody premixed with biotin human TROP2-his; blocked: binding of TROP2-his to coated BM1 (self-competition)
Description: as §1

[7] = biological target: T1, human TROP2-his protein; assay: competitive ELISA: BM1 coated, antibody premixed with biotin human TROP2-his; blocked: binding of TROP2-his to coated BM1 (self-competition), OD falls from about 1.9 to about 0.05
[8] = biological target: T1, human TROP2-his protein; assay: competitive ELISA: mouse A1E4F7D4 coated at 2 ug/mL, antibody premixed with biotin human TROP2-his; blocked: binding of TROP2-his to coated A1E4F7D4
Description: as §1

[9] = biological target: T1, human TROP2-his protein; assay: competitive ELISA: mouse A1H3C5H8E12 coated at 2 ug/mL, antibody premixed with biotin human TROP2-his; blocked: binding of TROP2-his to coated A1H3C5H8E12 (self-competition); no lower plateau reached at 80 nM
Description: as §1

B1: mouse antibody A1E4F7D4 (antibody, V domains shown)
VH: QVQLQQSGAELAKPGTSVKMSCEASGYSFTTHWIHWMKQRPGQGLEWIGTIFPSNAYAVYNQKFRDRAIMTADRSSTTAYIQLTGLTSEDSAVYYCARASYFDYWGQGTTLTVSS
VL: DILLTQSPATLSVSPGERVTFSCRASQNIGTSIHWFQQRTTGSPRLLIKYASESISGIPSRFSGSGSGTDFTLHINSVESEDIAHYYCQHSHSWPFTFGSGTKLEIQ
notes: Mouse monoclonal IgG purified from hybridoma supernatant; also called Mouse A1E4F7D4
**Q.** Which Kd [1] does the source give for B1 here?
**A.** The Kd was 0.0554 nM.

**Q.** What about the koff [1] of the same binder?
**A.** The koff was 4.7e-05 s⁻¹.

**Q.** And the kon [1]?
**A.** Its kon is 849000 M⁻¹ s⁻¹.

**Q.** What about the Kd [2] of the same binder?
**A.** Its Kd is 0.0489 nM.

**Q.** What about the koff [2] of the same binder?
**A.** Its koff is 4.54e-05 s⁻¹.

**Q.** And the kon [2]?
**A.** Its kon is 930000 M⁻¹ s⁻¹.

**Q.** And the IC50 [3]?
**A.** The IC50 was 0.584 nM.

**Q.** And the EC50 [4]?
**A.** The EC50 was 0.147 nM.

B2: benchmark (in house prepared sacituzumab) (antibody, human IgG1, kappa, V domains shown)
VH: SVQLQQSGSELKKPGASVKVSCKASGYTFTNYGMNWVKQAPGQGLKWMGWINTYTGEPTYTDDFKGRFAFSLDTSVSTAYLQISSLKADDTAVYFCARGGFGSSYWYFDVWGQGSLVTVSS
VL: DIQLTQSPSSLSASVGDRVSITCKASQDVSIAVAWYQQKPGKAPKLLIYSASYRYTGVPDRFSGSGSGTDFTLTISSLQPEDFAVYYCQQHYITPLTFGAGTKVEIKR
notes: also called BM; BM1
**Q.** How did the EC50 [5] turn out when B2 was run?
**A.** Its EC50 is 0.357 nM.

**Q.** And the IC50 [6]?
**A.** The IC50 was 1.28 nM.

**Q.** What about the IC50 [7] of the same binder?
**A.** Its IC50 is 0.88 nM.

B3: mouse antibody A1E11A12D1 (antibody, V domains shown)
VH: QVQLQQSGAELARPGASVKLSCMASGYTFTTYGISWVRQRTGQGLEWIGQIYPGSDYSYCDEDFKGKATLTADKSSSTAYMQLSSLTSEDSAVYFCARASYFDYWGQGTTLTVSS
VL: DILLTQSPAILSVSPGERVSFSCRASQTIGTAIHWYQQRANGSPRLLIKYASESISGIPSRFSGSGSGTDFALSINTVESEDFAYYYCQQSNNWPFTFGGGTKLEIR
notes: Mouse monoclonal IgG purified from hybridoma supernatant
**Q.** B3 was tested. Which IC50 [8] did it give?
**A.** The IC50 was 0.102 nM.

B4: mouse antibody A1H3C5H8E12 (antibody, V domains shown)
VH: QVQLQQSGAELVRPGTSVKMSCKAAGYTFTNYWIDWVKQRPGHGLEWIGNIFPGGFYTNYNEKFKGKATLTADTSSSTAYMQLSSLTSEDSAIYYCARGGVFDYWGQGTTLTVSS
VL: B3 VL with T28S, A32S, A40T, A72T, T77S, F83I, Y85D, N93S, F96Y, R107K
notes: as for B3
**Q.** Which IC50 [9] does the source give for B4 here?
**A.** The IC50 was 7 nM.
